Measured values: the supplement of paper PMC9112550, “Optimization of the antimicrobial peptide Bac7 by deep mutational scanning” (BMC Biology, 2022)

What follows are sequences tested on Escherichia coli TOP10 (assay: shrunken log2 fold change of peptide-encoding DNA abundance (4.5 h post-induction vs induction); higher = less antimicrobial activity (less host growth inhibition)). Conditions: time post-induction: 4.5 h; library: site-saturation at positions 5, 18, 19, 20.
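Also: peptides expressed intracellularly from a pBAD plasmid library in pooled LB shake-flask culture, induced with 0.3% L-arabinose, DNA abundance read by NGS, three biological replicates, DESeq2 with apeglm shrinkage.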

Question: For RRIRIRPPRLPRPRPRPINYPRP, which “shrunken log2 fold change” value is on record?
Answer: Its value is -0.379.

Question: How did the “shrunken log2 fold change” value turn out when RRIRIRPPRLPRPRPRPIPRPRP was run?
Answer: Its value is 0.0123.

Question: Which “shrunken log2 fold change” value does the source give for RRIRIRPPRLPRPRPRPIQDPRP here?
Answer: The value was -0.205.

Question: For RRIRIRPPRLPRPRPRPIQFPRP, which “shrunken log2 fold change” value is on record?
Answer: The value was -0.048.

Question: For RRIRIRPPRLPRPRPRPIQIPRP, which “shrunken log2 fold change” value is on record?
Answer: Its value is -0.0257.

Question: For RRIRIRPPRLPRPRPRPISKPRP, which “shrunken log2 fold change” value is on record?
Answer: The value was -0.161.

Question: How did the “shrunken log2 fold change” value turn out when RRIRIRPPRLPRPRPRPIVKPRP was run?
Answer: The value was -0.0118.

Question: For RRIRIRPPRLPRPRPRPIVRPRP, which “shrunken log2 fold change” value is on record?
Answer: The value was -0.339.

Question: How did the “shrunken log2 fold change” value turn out when RRIRIRPPRLPRPRPRPIVTPRP was run?
Answer: Its value is -0.429.

Question: For RRIRIRPPRLPRPRPRPIWWPRP, which “shrunken log2 fold change” value is on record?
Answer: Its value is 0.0713.

Question: How did the “shrunken log2 fold change” value turn out when RRIRIRPPRLPRPRPRPIYIPRP was run?
Answer: The value was -0.159.

Question: For RRIRIRPPRLPRPRPRPKAVPRP, which “shrunken log2 fold change” value is on record?
Answer: The value was -0.00677.

Question: RRIRIRPPRLPRPRPRPKDCPRP was tested. Which “shrunken log2 fold change” value did it give?
Answer: Its value is -0.0124.

Question: With RRIRIRPPRLPRPRPRPKEIPRP as the sequence, how does the “shrunken log2 fold change” value read?
Answer: Its value is -0.113.

Question: RRIRIRPPRLPRPRPRPKELPRP was tested. Which “shrunken log2 fold change” value did it give?
Answer: The value was -0.563.

Question: For RRIRIRPPRLPRPRPRPKFHPRP, which “shrunken log2 fold change” value is on record?
Answer: Its value is -0.375.

Question: With RRIRIRPPRLPRPRPRPKFSPRP as the sequence, how does the “shrunken log2 fold change” value read?
Answer: The value was -0.244.

Question: For RRIRIRPPRLPRPRPRPKFTPRP, which “shrunken log2 fold change” value is on record?
Answer: The value was -0.8.

Question: Which “shrunken log2 fold change” value does the source give for RRIRIRPPRLPRPRPRPKIFPRP here?
Answer: The value was 0.27.

Question: With RRIRIRPPRLPRPRPRPKIGPRP as the sequence, how does the “shrunken log2 fold change” value read?
Answer: Its value is -0.0343.

Question: For RRIRIRPPRLPRPRPRPKIMPRP, which “shrunken log2 fold change” value is on record?
Answer: Its value is -0.549.

Question: How did the “shrunken log2 fold change” value turn out when RRIRIRPPRLPRPRPRPKIRPRP was run?
Answer: The value was -0.0911.

Question: For RRIRIRPPRLPRPRPRPKITPRP, which “shrunken log2 fold change” value is on record?
Answer: Its value is -0.83.

Question: RRIRIRPPRLPRPRPRPKKPPRP was tested. Which “shrunken log2 fold change” value did it give?
Answer: Its value is 0.0487.

Question: RRIRIRPPRLPRPRPRPKLWPRP was tested. Which “shrunken log2 fold change” value did it give?
Answer: The value was -0.182.

Question: How did the “shrunken log2 fold change” value turn out when RRIRIRPPRLPRPRPRPKPDPRP was run?
Answer: The value was 0.528.

Question: RRIRIRPPRLPRPRPRPKPRPRP was tested. Which “shrunken log2 fold change” value did it give?
Answer: The value was 0.576.

Question: With RRIRIRPPRLPRPRPRPKQMPRP as the sequence, how does the “shrunken log2 fold change” value read?
Answer: Its value is -0.166.

Question: Which “shrunken log2 fold change” value does the source give for RRIRIRPPRLPRPRPRPKQSPRP here?
Answer: The value was -0.384.

Question: Which “shrunken log2 fold change” value does the source give for RRIRIRPPRLPRPRPRPKRMPRP here?
Answer: The value was -0.518.

Question: With RRIRIRPPRLPRPRPRPKRPPRP as the sequence, how does the “shrunken log2 fold change” value read?
Answer: The value was 0.449.

Question: Which “shrunken log2 fold change” value does the source give for RRIRIRPPRLPRPRPRPKTFPRP here?
Answer: The value was -0.0578.

Question: With RRIRIRPPRLPRPRPRPKWWPRP as the sequence, how does the “shrunken log2 fold change” value read?
Answer: The value was 0.188.

Question: Which “shrunken log2 fold change” value does the source give for RRIRIRPPRLPRPRPRPLAWPRP here?
Answer: The value was 0.0118.

Question: How did the “shrunken log2 fold change” value turn out when RRIRIRPPRLPRPRPRPLCAPRP was run?
Answer: Its value is -0.183.

Question: Which “shrunken log2 fold change” value does the source give for RRIRIRPPRLPRPRPRPLDWPRP here?
Answer: Its value is -0.418.

Question: RRIRIRPPRLPRPRPRPLEHPRP was tested. Which “shrunken log2 fold change” value did it give?
Answer: The value was -0.105.

Question: RRIRIRPPRLPRPRPRPLFAPRP was tested. Which “shrunken log2 fold change” value did it give?
Answer: Its value is -0.0892.

Question: Which “shrunken log2 fold change” value does the source give for RRIRIRPPRLPRPRPRPLFEPRP here?
Answer: The value was -0.251.

Question: Which “shrunken log2 fold change” value does the source give for RRIRIRPPRLPRPRPRPLFYPRP here?
Answer: Its value is -0.633.

Question: Which “shrunken log2 fold change” value does the source give for RRIRIRPPRLPRPRPRPLGDPRP here?
Answer: The value was -0.0585.

Question: How did the “shrunken log2 fold change” value turn out when RRIRIRPPRLPRPRPRPLGPPRP was run?
Answer: Its value is 0.0624.

Question: With RRIRIRPPRLPRPRPRPLKKPRP as the sequence, how does the “shrunken log2 fold change” value read?
Answer: Its value is -0.094.

Question: Which “shrunken log2 fold change” value does the source give for RRIRIRPPRLPRPRPRPLLKPRP here?
Answer: Its value is -0.428.

Question: How did the “shrunken log2 fold change” value turn out when RRIRIRPPRLPRPRPRPLLRPRP was run?
Answer: Its value is -0.239.

Question: RRIRIRPPRLPRPRPRPLNMPRP was tested. Which “shrunken log2 fold change” value did it give?
Answer: The value was -0.528.

Question: RRIRIRPPRLPRPRPRPLNQPRP was tested. Which “shrunken log2 fold change” value did it give?
Answer: The value was -0.195.

Question: How did the “shrunken log2 fold change” value turn out when RRIRIRPPRLPRPRPRPLNYPRP was run?
Answer: Its value is -0.384.

Question: RRIRIRPPRLPRPRPRPLQFPRP was tested. Which “shrunken log2 fold change” value did it give?
Answer: Its value is -0.0429.

Question: RRIRIRPPRLPRPRPRPLQQPRP was tested. Which “shrunken log2 fold change” value did it give?
Answer: The value was -0.293.

Question: With RRIRIRPPRLPRPRPRPLRRPRP as the sequence, how does the “shrunken log2 fold change” value read?
Answer: Its value is 0.0866.

Question: With RRIRIRPPRLPRPRPRPLRTPRP as the sequence, how does the “shrunken log2 fold change” value read?
Answer: Its value is -0.0568.

Question: Which “shrunken log2 fold change” value does the source give for RRIRIRPPRLPRPRPRPLVLPRP here?
Answer: The value was -0.458.

Question: For RRIRIRPPRLPRPRPRPLWGPRP, which “shrunken log2 fold change” value is on record?
Answer: Its value is 0.0579.

Question: Which “shrunken log2 fold change” value does the source give for RRIRIRPPRLPRPRPRPLWKPRP here?
Answer: The value was 0.145.

Question: How did the “shrunken log2 fold change” value turn out when RRIRIRPPRLPRPRPRPLYMPRP was run?
Answer: Its value is -0.918.

Question: How did the “shrunken log2 fold change” value turn out when RRIRIRPPRLPRPRPRPLYWPRP was run?
Answer: The value was -0.456.

Question: For RRIRIRPPRLPRPRPRPMAKPRP, which “shrunken log2 fold change” value is on record?
Answer: The value was -0.00776.

Question: Which “shrunken log2 fold change” value does the source give for RRIRIRPPRLPRPRPRPMDAPRP here?
Answer: The value was 0.0153.

Question: With RRIRIRPPRLPRPRPRPMELPRP as the sequence, how does the “shrunken log2 fold change” value read?
Answer: The value was -0.000689.

Question: With RRIRIRPPRLPRPRPRPMFDPRP as the sequence, how does the “shrunken log2 fold change” value read?
Answer: The value was -0.0483.

Question: RRIRIRPPRLPRPRPRPMFYPRP was tested. Which “shrunken log2 fold change” value did it give?
Answer: Its value is -1.25.

Question: How did the “shrunken log2 fold change” value turn out when RRIRIRPPRLPRPRPRPMGHPRP was run?
Answer: The value was -0.174.

Question: With RRIRIRPPRLPRPRPRPMHCPRP as the sequence, how does the “shrunken log2 fold change” value read?
Answer: Its value is -0.00192.

Question: For RRIRIRPPRLPRPRPRPMKIPRP, which “shrunken log2 fold change” value is on record?
Answer: The value was -0.167.

Question: For RRIRIRPPRLPRPRPRPMLFPRP, which “shrunken log2 fold change” value is on record?
Answer: Its value is -0.328.

Question: Which “shrunken log2 fold change” value does the source give for RRIRIRPPRLPRPRPRPMMVPRP here?
Answer: The value was -0.00145.

Question: How did the “shrunken log2 fold change” value turn out when RRIRIRPPRLPRPRPRPMNGPRP was run?
Answer: The value was 0.00766.

Question: Which “shrunken log2 fold change” value does the source give for RRIRIRPPRLPRPRPRPMPSPRP here?
Answer: Its value is -0.0227.

Question: Which “shrunken log2 fold change” value does the source give for RRIRIRPPRLPRPRPRPMPWPRP here?
Answer: Its value is 0.306.

Question: Which “shrunken log2 fold change” value does the source give for RRIRIRPPRLPRPRPRPMQKPRP here?
Answer: The value was 0.0387.

Question: How did the “shrunken log2 fold change” value turn out when RRIRIRPPRLPRPRPRPMQSPRP was run?
Answer: Its value is 0.0163.

Question: For RRIRIRPPRLPRPRPRPMSPPRP, which “shrunken log2 fold change” value is on record?
Answer: Its value is 0.111.

Question: How did the “shrunken log2 fold change” value turn out when RRIRIRPPRLPRPRPRPMTIPRP was run?
Answer: The value was -1.16.

Question: For RRIRIRPPRLPRPRPRPMVLPRP, which “shrunken log2 fold change” value is on record?
Answer: Its value is -0.071.
